Data taken from US20050249739A1.

Target: S protein of SARS-CoV (Urbani strain) on virus (SARS-CoV (Urbani strain)) (UniProt P59594)
Assay: cell-based or functional assay

80R IgG1 (antibody) gave a micro-neutralization assay: fold more effective than 80R scFv on a molar basis of 20 fold.
